Reference: publication PMC6082341 (2017)
Ends that are not written are not given here.

B1: 3BP2 TBM peptide (WT positive control) (peptide)
chain: LPHLQRSPPDGQSFRS
modifications: also: fluorescein or 5(6)-carboxyfluorescein linked via β-Ala, site not given here
B2: TNKS2 ARC5 (domain or fragment)
chain: GAMGSDLLRGDAALLDAAKKGCLARVKKLSSPDNVNCRDTQGRHSTPLHLAAGYNNLEVAEYLLQHGADVNAQDKGGLIPLHNAASYGHVDVAALLIKYNACVNATDKWAFTPLHEAAQKGRTQLCALLLAHGADPTLKNQEGQTPLDLVSADDVSALLTAAMPP

How the values were obtained:
TNKS2 ARC5 = target: B2; assay: FP
MERIT40 (two peptides) [1] = target: T1, MERIT40 (two peptides) (fluorescein or 5(6)-carboxyfluorescein fluorophore; the fluorescein is linked via β-Ala); assay: FP; MERIT40 II peptide (…)
MERIT40 (two peptides) [2] = target: T1, MERIT40 (two peptides); assay: FP; MERIT40 I peptide (…)

Kd (TNKS2 ARC5)	Kd (MERIT40 (two peptides) [1])	Kd (MERIT40 (two peptides) [2])	Binder
390 nM			B1
	3000 nM	530 nM	B2
